Experimental findings from patent publication US20180148492A1 (CHILDREN S HOSPITAL MEDICAL CENTER, published 2018) are described below.

Data set [1] has as its target T1, integrin α4 overexpressed in HEK 293T cells (UniProt P13612 34-1032, limits assumed).
T1 construct: Tested in cell lysates; also called α4 integrin; pITGA4
T1 sequence (looked up): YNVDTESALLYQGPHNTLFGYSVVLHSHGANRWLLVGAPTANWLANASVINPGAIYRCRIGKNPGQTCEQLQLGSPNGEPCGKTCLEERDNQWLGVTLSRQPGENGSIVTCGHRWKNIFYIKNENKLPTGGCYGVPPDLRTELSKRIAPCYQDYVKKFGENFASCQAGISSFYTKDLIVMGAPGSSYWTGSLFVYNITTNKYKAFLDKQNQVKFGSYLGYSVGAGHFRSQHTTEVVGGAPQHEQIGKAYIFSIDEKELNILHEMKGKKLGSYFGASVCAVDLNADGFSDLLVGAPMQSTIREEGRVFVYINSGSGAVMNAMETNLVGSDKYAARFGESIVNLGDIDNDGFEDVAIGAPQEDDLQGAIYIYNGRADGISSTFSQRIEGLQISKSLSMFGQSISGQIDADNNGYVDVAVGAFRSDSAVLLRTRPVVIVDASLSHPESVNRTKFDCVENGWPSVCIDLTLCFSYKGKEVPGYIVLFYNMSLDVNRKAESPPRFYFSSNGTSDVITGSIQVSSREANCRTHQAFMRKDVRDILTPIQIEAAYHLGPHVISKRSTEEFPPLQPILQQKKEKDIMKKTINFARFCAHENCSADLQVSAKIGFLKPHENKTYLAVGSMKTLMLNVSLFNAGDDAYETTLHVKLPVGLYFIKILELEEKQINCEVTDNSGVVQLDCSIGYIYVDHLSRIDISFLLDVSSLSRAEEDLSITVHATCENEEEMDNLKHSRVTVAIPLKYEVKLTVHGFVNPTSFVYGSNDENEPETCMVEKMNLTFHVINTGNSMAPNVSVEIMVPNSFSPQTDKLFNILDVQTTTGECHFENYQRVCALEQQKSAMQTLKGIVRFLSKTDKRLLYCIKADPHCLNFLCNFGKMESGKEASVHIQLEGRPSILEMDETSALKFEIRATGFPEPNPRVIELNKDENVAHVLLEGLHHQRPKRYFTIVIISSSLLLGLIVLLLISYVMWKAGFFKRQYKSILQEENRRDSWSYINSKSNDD
In words: co-immunoprecipitation from HEK 293T cells overexpressing the proteins. On the procedure:
Cells (approximately 2×10⁶) were washed one time with PBS and incubated in IP buffer (50 mM Tris-HCl [pH 7.4], 150 mM NaCl, 2 mM EDTA, 1 mM dithiothreitol, 1% Nonidet P-40 [NP-40]; or 10 mM imidazole, 100 mM NaCl, 1 mM MgCl₂, 5 mM EDTA, 1% Triton X-100, pH 7.4) containing 1× cOmplete protease inhibitor cocktail (Roche) for 10 min on ice. Cells were scraped from the plate and rotated at 4° C. for 10 min. Lysates were cleared by centrifugation at 20,000×g at 4° C. for 10 min. An equal amount of protein was added to total 500 microliters of IP buffer plus protease inhibitors (Roche). Antibodies (2 micrograms α-HA (Covance), α-myc (Covance), α-p120 (BD Transduction Laboratories), α-ITGA4 (Cell Signaling Technology, Inc.), mouse IgG1 control (AbD Serotec), or normal rabbit IgG control (R & D Systems)) were added and rotated overnight at 4° C. Subsequently, 20 microliters of protein A/G agarose beads (Santa Cruz Biotechnology, Inc.) were added per sample. After 2 h of rotation (4° C.), beads were washed 5 times in IP buffer containing protease inhibitors. 2× Laemmli buffer was added to the immunoprecipitates or total cell lysates saved prior to IP (input).

Data set [2] concerns the molecule itself. As to the kind of experiment: cell-based or functional assay.

B1: CDH1 (E-cadherin) overexpressed in HEK 293T cells (receptor, UniProt P12830 155-882, looked up)
chain: DWVIPPISCPENEKGPFPKNLVQIKSNKDKEGKVFYSITGQGADTPPVGVFIIERETGWLKVTEPLDRERIATYTLFSHAVSSNGNAVEDPMEILITVTDQNDNKPEFTQEVFKGSVMEGALPGTSVMEVTATDADDDVNTYNAAIAYTILSQDPELPDKNMFTINRNTGVISVVTTGLDRESFPTYTLVVQAADLQGEGLSTTATAVITVTDTNDNPPIFNPTTYKGQVPENEANVVITTLKVTDADAPNTPAWEAVYTILNDDGGQFVVTTNPVNNDGILKTAKGLDFEAKQQYILHVAVTNVVPFEVSLTTSTATVTVDVLDVNEAPIFVPPEKRVEVSEDFGVGQEITSYTAQEPDTFMEQKITYRIWRDTANWLEINPDTGAISTRAELDREDFEHVKNSTYTALIIATDNGSPVATGTGTLLLILSDVNDNAPIPEPRTIFFCERNPKPQVINIIDADLPPNTSPFTAELTHGASANWTIQYNDPTQESIILKPKMALEVGDYKINLKLMDNQNKDQVTTLEVSVCDCEGAAGVCRKAQPVEAGLQIPAILGILGGILALLILILLLLLFLRRRAVVKEPLLPPEDDTRDNVYYYDEEGGGEEDQDFDLSQLHRGLDARPEVTRNDVAPTLMSVPRYLPRPANPDEIGNFIDENLKAADTDPTAPPYDSLLVFDYEGSGSEAASLSSLNSSESDKDQDYDYLNEWGNRFKKLADMYGGGEDD
notes: Tested in cell lysates; also called pCDH1
For the molecule B1, the binding result in data set [1] is listed as “no binding”.

B2: human CDH26 (cadherin 26) expressed on transduced cells (receptor)
chain: DSVQQETDDLTKQTKEKIYQPLRRSKRRWVITTLELEEEDPGPFPKLIGELFNNMSYNMSLMYLISGPGVDEYPEIGLFSLEDHENGRIYVHRPVDREMTPSFTVYFDVVERSTGKIVDTSLIFNIRISDVNDHAPQFPEKEFNITVQENQSAGQPIFQMLAVDLDEENTPNSQVLYFLISQTPLLKESGFRVDRLSGEIRLSGCLDYETAPQFTLLIRARDCGEPSLSSTTTVHVDVQEGNNHRPAFTQENYKVQIPEGRASQGVLRLLVQDRDSPFTSAWRAKFNILHGNEEGHFDISTDPETNEGILNVIKPLDYETRPAQSLIIVVENEERLVFCERGKLQPPRKAAASATVSVQVTDANDPPAFHPQSFIVNKEEGARPGTLLGTFNAMDPDSQIRYELVHDPANWVSVDKNSGVVITVEPIDRESPHVNNSFYVIIIHAVDDGFPPQTATGTLMLFLSDINDNVPTLRPRSRYMEVCESAVHEPLHIEAEDPDLEPFSDPFTFELDNTWGNAEDTWKLGRNWGQSVELLTLRSLPRGNYLVPLFIGDKQGLSQKQTVHVRICPCASGLTCVELADAEVGLHVGALFPVCAAFVALAVALLFLLRCYFVLEPKRHGCSVSNDEGHQTLVMYNAESKGTSAQTWSDVEGQRPALLICTAAAGPTQGVKDLEEVPPSAASQSAQARCALGSWGYGKPFEPRSVKNIHSTPAYPDATMHRQLLAPVEGRMAETLNQKLHVANVLEDDPGYLPHVYSEEGECGGAPSLSSLASLEQELQPDLLDSLGSKATPFEEIYSESGVPS
Take B2: in data set [2], the “phosphorylation of ERK upon calcium restoration” value was 11.6 fold.
